The text below walks through data of US20090297470.

Data set [1] concerns the target recombinant SDF-1α (1-68), full length, 7.97 kDa.
Another data set deals with T1, Diprotin A (Ile-Pro-Ile).
T1 chain: IPI

B1: CD26/dipeptidylpeptidase IV (DPP-IV), endogenous enzyme in heart lysates of wild type C57BL/6 mice (protein)
chain: MKTPWKVLLGLLGVAALVTIITVPIVLLSKDEAAADSRRTYSLADYLKSTFRVKSYSLWWVSDFEYLYKQENNILLLNAEHGNSSIFLENSTFESFGYHSVSPDRLFVLLEYNYVKQWRHSYTASYNIYDVNKRQLITEEKIPNNTQWITWSPEGHKLAYVWKNDIYVKVEPHLPSHRITSTGEENVIYNGITDWVYEEEVFGAYSALWWSPNNTFLAYAQFNDTGVPLIEYSFYSDESLQYPKTVWIPYPKAGAVNPTVKFFIVNIDSLSSSSSAAPIQIPAPASVARGDHYLCDVVWATEERISLQWLRRIQNYSVMAICDYDKINLTWNCPSEQQHVEMSTTGWVGRFRPAEPHFTSDGSSFYKIISDKDGYKHICHFPKDKKDCTFITKGAWEVISIEALTSDYLYYISNQYKEMPGGRNLYKIQLTDHTNVKCLSCDLNPERCQYYAVSFSKEAKYYQLGCWGPGLPLYTLHRSTDHKELRVLEDNSALDRMLQDVQMPSKKLDFIVLNETRFWYQMILPPHFDKSKKYPLLLDVYAGPCSQKADASFRLNWATYLASTENIIVASFDGRGSGYQGDKIMHAINRRLGTLEVEDQIEAARQFVKMGFVDSKRVAIWGWSYGGYVTSMVLGSGSGVFKCGIAVAPVSRWEYYDSVYTERYMGLPIPEDNLDHYRNSTVMSRAEHFKQVEYLLIHGTADDNVHFQQSAQISKALVDAGVDFQAMWYTDEDHGIASSTAHQHIYSHMSHFLQQCFSLH
Regarding B1, the “mass spectrometry of recombinant SDF-1 incubated with heart lysates (cleavage product peak)” value in data set [1] is recorded as “lysates derived from wt animals also showed high abundance of a second peak at 7.748 kDa corresponding to N-terminal cleavage of SDF-1α by DPP-IV”. The “proteolytic DPP-IV activity (H-Gly-Pro-AMC) in myocardium and serum 2 days after MI” value with Diprotin A (Ile-Pro-Ile) was “Combined application of G-CSF and Diprotin A in wt mice ("G-CSF-DipA mice") lead to a decreased DPP-IV activity after MI only in the myocardium but not in the serum”.
